Results published in article PMC4812828 (Nature structural & molecular biology, 2016).

How the values were obtained:
Assay in all cases: cryo-EM structure
[1] = target: T1, Cdc45 (S. cerevisiae, UniProt Q08032 1-650)
T1 sequence: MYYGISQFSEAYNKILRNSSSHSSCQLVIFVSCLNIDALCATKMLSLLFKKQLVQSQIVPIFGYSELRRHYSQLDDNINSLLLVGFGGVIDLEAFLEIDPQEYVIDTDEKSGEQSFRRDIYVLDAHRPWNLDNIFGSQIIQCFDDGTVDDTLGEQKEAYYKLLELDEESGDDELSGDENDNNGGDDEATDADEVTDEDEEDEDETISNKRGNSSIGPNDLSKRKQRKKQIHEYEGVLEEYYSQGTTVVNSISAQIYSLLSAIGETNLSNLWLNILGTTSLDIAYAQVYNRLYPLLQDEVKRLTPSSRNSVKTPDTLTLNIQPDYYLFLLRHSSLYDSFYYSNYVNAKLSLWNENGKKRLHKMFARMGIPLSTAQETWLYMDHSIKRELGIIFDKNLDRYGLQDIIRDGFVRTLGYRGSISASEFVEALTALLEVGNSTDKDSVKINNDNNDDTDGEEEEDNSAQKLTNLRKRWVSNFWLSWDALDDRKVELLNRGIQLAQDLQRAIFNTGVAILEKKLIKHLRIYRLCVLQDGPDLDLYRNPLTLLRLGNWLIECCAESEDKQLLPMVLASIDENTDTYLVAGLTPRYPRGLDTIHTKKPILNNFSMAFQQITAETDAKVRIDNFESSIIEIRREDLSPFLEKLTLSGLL

[2] = target: Mcm3 (S. cerevisiae, UniProt P24279 1-971)
Chain of Mcm3 (P24279 whole entry): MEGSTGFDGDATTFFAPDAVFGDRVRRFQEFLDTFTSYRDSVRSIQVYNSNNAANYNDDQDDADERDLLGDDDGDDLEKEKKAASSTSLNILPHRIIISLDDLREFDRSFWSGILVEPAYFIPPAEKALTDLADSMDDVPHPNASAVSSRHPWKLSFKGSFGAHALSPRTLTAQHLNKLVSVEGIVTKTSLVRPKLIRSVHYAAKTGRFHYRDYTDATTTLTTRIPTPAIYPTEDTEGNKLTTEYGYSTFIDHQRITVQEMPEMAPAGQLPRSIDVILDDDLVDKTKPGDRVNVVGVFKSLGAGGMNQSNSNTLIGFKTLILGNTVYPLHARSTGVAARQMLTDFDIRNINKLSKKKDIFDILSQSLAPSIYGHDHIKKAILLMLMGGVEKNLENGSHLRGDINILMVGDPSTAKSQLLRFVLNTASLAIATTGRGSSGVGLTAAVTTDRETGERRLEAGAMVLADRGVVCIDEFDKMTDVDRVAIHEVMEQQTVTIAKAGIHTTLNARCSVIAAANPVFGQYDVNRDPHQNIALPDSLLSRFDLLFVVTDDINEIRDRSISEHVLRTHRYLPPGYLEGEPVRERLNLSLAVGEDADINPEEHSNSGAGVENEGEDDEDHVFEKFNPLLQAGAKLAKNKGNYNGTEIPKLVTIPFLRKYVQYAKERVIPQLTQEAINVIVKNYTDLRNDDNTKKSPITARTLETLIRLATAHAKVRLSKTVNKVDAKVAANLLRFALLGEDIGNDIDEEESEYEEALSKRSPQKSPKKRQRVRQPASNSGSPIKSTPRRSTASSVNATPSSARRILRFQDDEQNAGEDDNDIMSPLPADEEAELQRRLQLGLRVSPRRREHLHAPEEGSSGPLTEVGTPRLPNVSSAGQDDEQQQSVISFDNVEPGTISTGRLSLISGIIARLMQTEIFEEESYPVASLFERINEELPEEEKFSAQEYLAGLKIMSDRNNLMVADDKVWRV

[3] = target: T2, Mcm4 (S. cerevisiae, UniProt P30665 1-933)
T2 sequence: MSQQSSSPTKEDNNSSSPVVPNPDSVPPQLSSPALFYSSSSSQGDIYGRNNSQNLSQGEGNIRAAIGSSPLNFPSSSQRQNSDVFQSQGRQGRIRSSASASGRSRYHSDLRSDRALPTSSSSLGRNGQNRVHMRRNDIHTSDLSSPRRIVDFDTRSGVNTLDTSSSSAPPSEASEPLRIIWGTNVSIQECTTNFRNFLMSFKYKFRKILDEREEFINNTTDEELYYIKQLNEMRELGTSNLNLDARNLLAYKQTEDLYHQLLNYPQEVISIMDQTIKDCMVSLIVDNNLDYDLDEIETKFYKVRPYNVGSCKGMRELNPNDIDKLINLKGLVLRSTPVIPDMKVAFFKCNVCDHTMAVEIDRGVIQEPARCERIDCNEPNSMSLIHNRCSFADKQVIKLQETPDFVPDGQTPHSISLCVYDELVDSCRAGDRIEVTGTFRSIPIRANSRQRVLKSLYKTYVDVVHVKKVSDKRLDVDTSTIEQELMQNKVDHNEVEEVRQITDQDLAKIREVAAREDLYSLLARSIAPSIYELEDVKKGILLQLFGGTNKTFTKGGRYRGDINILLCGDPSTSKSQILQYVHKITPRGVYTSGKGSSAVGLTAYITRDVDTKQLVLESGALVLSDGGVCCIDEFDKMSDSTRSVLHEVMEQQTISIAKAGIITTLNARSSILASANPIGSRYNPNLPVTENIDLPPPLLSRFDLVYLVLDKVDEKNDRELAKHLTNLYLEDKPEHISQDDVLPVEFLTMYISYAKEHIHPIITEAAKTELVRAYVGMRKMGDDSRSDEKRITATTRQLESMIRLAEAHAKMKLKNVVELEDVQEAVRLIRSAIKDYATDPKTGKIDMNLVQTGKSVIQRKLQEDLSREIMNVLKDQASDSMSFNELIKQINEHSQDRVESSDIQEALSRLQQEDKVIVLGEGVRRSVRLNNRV

[4] = target: T3, GINS (S. cerevisiae, UniProt Q03406;Q12488;P40359;Q12146)
T3 sequence 1: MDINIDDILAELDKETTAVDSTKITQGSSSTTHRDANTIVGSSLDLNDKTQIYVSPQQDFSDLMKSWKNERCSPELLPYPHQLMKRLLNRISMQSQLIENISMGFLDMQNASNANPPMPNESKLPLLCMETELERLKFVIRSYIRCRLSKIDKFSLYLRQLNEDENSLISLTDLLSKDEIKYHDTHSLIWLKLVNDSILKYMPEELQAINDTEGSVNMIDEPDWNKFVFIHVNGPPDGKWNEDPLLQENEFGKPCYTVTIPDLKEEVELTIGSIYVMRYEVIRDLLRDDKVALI
T3 sequence 2: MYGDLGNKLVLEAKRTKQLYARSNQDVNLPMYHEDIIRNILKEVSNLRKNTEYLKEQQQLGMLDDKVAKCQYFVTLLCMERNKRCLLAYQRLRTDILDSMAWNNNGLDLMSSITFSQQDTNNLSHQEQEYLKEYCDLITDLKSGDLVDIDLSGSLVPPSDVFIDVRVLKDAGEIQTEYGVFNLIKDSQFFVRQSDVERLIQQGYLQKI
T3 sequence 3: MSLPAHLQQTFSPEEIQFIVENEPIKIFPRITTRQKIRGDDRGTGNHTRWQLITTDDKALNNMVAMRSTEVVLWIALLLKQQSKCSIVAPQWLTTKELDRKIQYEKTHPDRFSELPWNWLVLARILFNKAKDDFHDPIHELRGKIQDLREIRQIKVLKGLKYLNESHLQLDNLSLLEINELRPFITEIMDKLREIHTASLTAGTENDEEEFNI
T3 sequence 4: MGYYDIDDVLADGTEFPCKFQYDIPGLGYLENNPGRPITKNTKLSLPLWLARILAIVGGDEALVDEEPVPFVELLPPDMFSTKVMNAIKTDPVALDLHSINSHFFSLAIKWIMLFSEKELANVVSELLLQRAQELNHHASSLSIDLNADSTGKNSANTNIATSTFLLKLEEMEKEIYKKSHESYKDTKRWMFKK

[5] = target: Mcm6 (S. cerevisiae, UniProt P53091 1-1017)
Chain of Mcm6 (P53091 whole entry): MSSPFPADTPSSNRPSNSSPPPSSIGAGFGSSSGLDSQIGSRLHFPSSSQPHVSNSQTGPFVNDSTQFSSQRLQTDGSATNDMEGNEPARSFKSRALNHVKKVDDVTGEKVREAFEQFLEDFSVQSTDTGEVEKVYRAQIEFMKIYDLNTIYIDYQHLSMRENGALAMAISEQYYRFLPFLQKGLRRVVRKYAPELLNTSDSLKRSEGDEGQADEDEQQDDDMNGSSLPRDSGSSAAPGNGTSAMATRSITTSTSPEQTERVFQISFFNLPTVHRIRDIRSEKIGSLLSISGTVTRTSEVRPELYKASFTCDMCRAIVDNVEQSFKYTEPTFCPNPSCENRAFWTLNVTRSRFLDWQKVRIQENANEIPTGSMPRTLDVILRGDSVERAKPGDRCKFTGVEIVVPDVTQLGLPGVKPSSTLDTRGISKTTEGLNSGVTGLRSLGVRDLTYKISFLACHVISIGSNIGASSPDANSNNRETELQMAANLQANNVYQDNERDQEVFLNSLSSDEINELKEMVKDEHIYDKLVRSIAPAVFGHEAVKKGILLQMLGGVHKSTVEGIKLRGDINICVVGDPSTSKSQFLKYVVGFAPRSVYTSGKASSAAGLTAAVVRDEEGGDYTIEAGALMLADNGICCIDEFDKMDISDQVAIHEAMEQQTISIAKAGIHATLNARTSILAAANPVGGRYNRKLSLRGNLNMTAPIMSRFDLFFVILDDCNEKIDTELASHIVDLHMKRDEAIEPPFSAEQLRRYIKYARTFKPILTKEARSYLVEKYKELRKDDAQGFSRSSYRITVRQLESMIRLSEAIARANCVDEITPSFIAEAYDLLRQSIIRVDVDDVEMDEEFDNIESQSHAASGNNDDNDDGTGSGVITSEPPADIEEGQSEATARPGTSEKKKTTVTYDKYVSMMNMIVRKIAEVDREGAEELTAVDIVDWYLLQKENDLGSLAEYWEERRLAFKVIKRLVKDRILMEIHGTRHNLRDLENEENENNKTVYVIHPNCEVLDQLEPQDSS

B1: Psf1 (natural protein)
chain: MYGDLGNKLVLEAKRTKQLYARSNQDVNLPMYHEDIIRNILKEVSNLRKNTEYLKEQQQLGMLDDKVAKCQYFVTLLCMERNKRCLLAYQRLRTDILDSMAWNNNGLDLMSSITFSQQDTNNLSHQEQEYLKEYCDLITDLKSGDLVDIDLSGSLVPPSDVFIDVRVLKDAGEIQTEYGVFNLIKDSQFFVRQSDVERLIQQGYLQKI
[1]
  binding result: binds

B2: Psf2 (natural protein)
chain: MSLPAHLQQTFSPEEIQFIVENEPIKIFPRITTRQKIRGDDRGTGNHTRWQLITTDDKALNNMVAMRSTEVVLWIALLLKQQSKCSIVAPQWLTTKELDRKIQYEKTHPDRFSELPWNWLVLARILFNKAKDDFHDPIHELRGKIQDLREIRQIKVLKGLKYLNESHLQLDNLSLLEINELRPFITEIMDKLREIHTASLTAGTENDEEEFNI
[1]
  binding result: binds

B3: Mcm7 (natural protein)
chain: MSAALPSIQLPVDYNNLFNEITDFLVTFKQDTLSSDATRNENEDENLDAENIEQHLLEKGPKYMAMLQKVANRELNSVIIDLDDILQYQNEKFLQGTQADDLVSAIQQNANHFTELFCRAIDNNMPLPTKEIDYKDDVLDVILNQRRLRNERMLSDRTNEIRSENLMDTTMDPPSSMNDALREVVEDETELFPPNLTRRYFLYFKPLSQNCARRYRKKAISSKPLSVRQIKGDFLGQLITVRGIITRVSDVKPAVEVIAYTCDQCGYEVFQEVNSRTFTPLSECTSEECSQNQTKGQLFMSTRASKFSAFQECKIQELSQQVPVGHIPRSLNIHVNGTLVRSLSPGDIVDVTGIFLPAPYTGFKALKAGLLTETYLEAQFVRQHKKKFASFSLTSDVEERVMELITSGDVYNRLAKSIAPEIYGNLDVKKALLLLLVGGVDKRVGDGMKIRGDINVCLMGDPGVAKSQLLKAICKISPRGVYTTGKGSSGVGLTAAVMKDPVTDEMILEGGALVLADNGICCIDEFDKMDESDRTAIHEVMEQQTISISKAGINTTLNARTSILAAANPLYGRYNPRLSPLDNINLPAALLSRFDILFLMLDIPSRDDDEKLAEHVTYVHMHNKQPDLDFTPVEPSKMREYIAYAKTKRPVMSEAVNDYVVQAYIRLRQDSKREMDSKFSFGQATPRTLLGIIRLSQALAKLRLADMVDIDDVEEALRLVRVSKESLYQETNKSKEDESPTTKIFTIIKKMLQETGKNTLSYENIVKTVRLRGFTMLQLSNCIQEYSYLNVWHLINEGNTLKFVDDGTMDTDQEDSLVSTPKLAPQTTASANVSAQDSDIDLQDA
[2]
  binding result: binds
[3]
  binding result: binds

B4: Mcm5 (natural protein)
chain: MSFDRPEIYSAPVLQGESPNDDDNTEIIKSFKNFILEFRLDSQFIYRDQLRNNILVKNYSLTVNMEHLIGYNEDIYKKLSDEPSDIIPLFETAITQVAKRISILSRAQSANNNDKDPENTSMDTDSLLLNSLPTFQLILNSNANQIPLRDLDSEHVSKIVRLSGIIISTSVLSSRATYLSIMCRNCRHTTSITINNFNSITGNTVSLPRSCLSTIESESSMANESNIGDESTKKNCGPDPYIIIHESSKFIDQQFLKLQEIPELVPVGEMPRNLTMTCDRYLTNKVIPGTRVTIVGIYSIYNSKNGAGSGRSGGGNGGSGVAIRTPYIKILGIQSDVETSSIWNSVTMFTEEEEEEFLQLSRNPKLYEILTNSIAPSIFGNEDIKKAIVCLLMGGSKKILPDGMRLRGDINVLLLGDPGTAKSQLLKFVEKVSPIAVYTSGKGSSAAGLTASVQRDPMTREFYLEGGAMVLADGGVVCIDEFDKMRDEDRVAIHEAMEQQTISIAKAGITTVLNSRTSVLAAANPIYGRYDDLKSPGDNIDFQTTILSRFDMIFIVKDDHNEERDISIANHVINIHTGNANAMQNQQEENGSEISIEKMKRYITYCRLKCAPRLSPQAAEKLSSNFVTIRKQLLINELESTERSSIPITIRQLEAIIRITESLAKLELSPIAQERHVDEAIRLFQASTMDAASQDPIGGLNQASGTSLSEIRRFEQELKRRLPIGWSTSYQTLRREFVDTHRFSQLALDKALYALEKHETIQLRHQGQNIYRSGV
[4]
  binding result: binds
[5]
  binding result: binds
